# Numbering of substitutions follows the chain as printed.
# B1: 鼠单克隆抗体36A2 (antibody, V domains shown)
# VH: EIQLQQSGPELVKPGASVKVSCKASGYSFTDYNIYWVKQGHGESLEWIGYIDPYNGDTDYNQKFKDRSTLTVDKSSNTAFMHLNSLTSEDSAVYYCARSRNYYGSSFAYWGQGTLVTVSA
# VL: DVLMTQTPLSLPVSLGDQASISCRSSQAIVHGNGNTYLEWSLQKPVHSPKLLIFKVSNRFSGVPDRFSGSGSGTDFTLKISRVEAEDLGVYYCFQGSHVPPTFGGGTKLEIK
# B2: 鼠单克隆抗体3D9 (antibody, V domains shown)
# VH: QVQLQQSGAELAKPGAAVKMSCKASGYTFTSHWMHWVNQRPGQGLEWIGYINPTTGYSEYNQKFKDKATMTADKSSSTAYMHLRSLTSEDSAVYYCARGAYYYGSSRFDYWGQGTTLTVSS
# VL: B1 VL with A28T, G32T, S41Y, V46G, H47Q, F54Y, P101W
# notes: Mouse monoclonal antibody from a hybridoma; also called 第一单抗
# Columns and labels:
# [1] = biological target: 人源PGI蛋白 (human pepsinogen I from human gastric mucosa, Lee Biosolutions, cat. 440-50) (human) (UniProt P0DJD8); assay: indirect ELISA, human-derived PGI coated at 2 ug/mL, culture supernatant diluted 50-fold
# [2] = biological target: T1, 重组PGI蛋白 (recombinant pepsinogen I protein, expressed in HEK293 cells) (Homo sapiens (Human), UniProt P0DJD9 16-388, limits assumed); assay: indirect ELISA screen of hybridoma supernatants on coated recombinant PGI
# T1 construct: Immunogen and ELISA coating antigen; also called PGI重组蛋白; 重组蛋白
# T1 sequence (P0DJD9 other isoform, or with tags, fused parts or gaps limits assumed): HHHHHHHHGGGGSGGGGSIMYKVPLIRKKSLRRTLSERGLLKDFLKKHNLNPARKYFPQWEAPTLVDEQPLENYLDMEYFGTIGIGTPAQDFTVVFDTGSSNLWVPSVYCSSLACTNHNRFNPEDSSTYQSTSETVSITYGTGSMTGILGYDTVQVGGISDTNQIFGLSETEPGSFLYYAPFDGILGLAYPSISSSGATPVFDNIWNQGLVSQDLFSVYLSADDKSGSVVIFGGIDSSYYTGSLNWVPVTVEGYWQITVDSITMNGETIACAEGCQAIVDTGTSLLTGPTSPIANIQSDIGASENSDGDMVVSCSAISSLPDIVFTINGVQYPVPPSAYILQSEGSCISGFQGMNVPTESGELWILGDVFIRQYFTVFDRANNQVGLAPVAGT
# Sequence of UniProt P0DJD8 (P0DJD8 16-388): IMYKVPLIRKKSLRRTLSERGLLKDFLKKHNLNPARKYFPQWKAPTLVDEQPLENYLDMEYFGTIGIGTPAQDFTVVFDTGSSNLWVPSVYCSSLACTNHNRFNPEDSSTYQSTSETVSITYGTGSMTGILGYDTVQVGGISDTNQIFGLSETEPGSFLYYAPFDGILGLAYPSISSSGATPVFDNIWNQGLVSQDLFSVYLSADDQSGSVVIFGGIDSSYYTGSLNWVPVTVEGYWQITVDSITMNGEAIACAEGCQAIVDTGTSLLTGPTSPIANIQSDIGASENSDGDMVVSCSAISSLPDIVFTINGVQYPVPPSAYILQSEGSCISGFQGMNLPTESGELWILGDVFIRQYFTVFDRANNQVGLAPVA
Binder,OD450 [1] [OD450],binding result [2]
B1,2.04,–
B2,1.87,binds

# From CN114835815A (NINGBO SAIPO BIOTECHNOLOGY CO LTD, dated 2022)
